The values below come from article doi:10.1101/2024.09.18.613542 (bioRxiv, 2024).

Common to all, as to assay: ELISA
The target of test [1] is T1, RoxP_11-tagless (Cutibacterium porci (WP_154564006.1)).
T1 chain: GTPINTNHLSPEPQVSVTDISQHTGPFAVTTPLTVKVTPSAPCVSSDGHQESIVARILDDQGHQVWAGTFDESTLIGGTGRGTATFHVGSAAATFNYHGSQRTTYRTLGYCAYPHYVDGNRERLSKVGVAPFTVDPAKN

Test [2] addresses T2, 8His-TEV-RoxP_1 (Cutibacterium acnes KPA171202).
T2 chain: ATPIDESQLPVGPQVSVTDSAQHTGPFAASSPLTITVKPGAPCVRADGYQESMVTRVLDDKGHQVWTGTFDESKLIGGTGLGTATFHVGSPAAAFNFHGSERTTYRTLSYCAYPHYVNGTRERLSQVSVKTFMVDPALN

The target of test [3] is T3, endogenous RoxP secreted by C. acnes strain KPA171202 (Cutibacterium acnes KPA171202, UniProt Q6A6F6).
In test [4] the target is T4, endogenous RoxP secreted by C. acnes strain ATCC 6919 (Cutibacterium acnes ATCC 6919 …, UniProt Q6A6F6, strain).
The target of test [5] is T3, endogenous RoxP secreted by C. acnes …. The source holds these as a separate data set.
Test [6] concerns the target T4, endogenous RoxP secreted by C. acnes …. The source holds these as a separate data set.

Numbering of substitutions follows the chain as printed. Read-outs that look alike come from different tables or passages of the source.

B1: 3E10E3 (antibody, V domains shown)
VH: QVTLKESGPGILQPSQTLSLTCSFSGFSLSTYGIGVGWIRQPSGKGLEWLAHIWWNDNKYYNTALKSRLTISKDTSNNQVFLKIASVDTADTATYYCARSLPYFDYWGQGTTLTVSS
VL: DIQMTQSPASLSASVGETVTITCRASENIYSYLAWYQQKQGKSPQFLVYNAKTLAEGVPSRFSGSGSGTQFSLKINSLQPEDFGSYYCQHHYGIPRTFGGGTKLEIK
For B1, the binding result in test [1] and in test [2] was “binds” throughout.

B2: 4D8H1 (antibody, V domains shown)
VH: EVKLLESGGGLVQPGGSLKLSCAASGFDFSRYWMSWVRQAPGKGLEWIGEINPDSSTINYTPSLKDKFIISRDNAKNTLYLQMSKVRSEDTALYYCARYYSRFAYWGQGTLVTVSA
VL: QAVVTQESALTTSPGETVTLTCRSSTGAVTTRNYANWVQEKPDHLFTGLIGDTNNRAPGVPARFSGSLIGDKAALTITGAQTEDEAIYFCALWYSNHWVFGGGTKLTVL
With B2, the binding result in test [3] is “binds”; in test [4], “binds”; in test [1] it was “no binding (tested: 155 ng/mL)”; in test [2], “binds”.

B3: 2H2F3 (antibody, V domains shown)
VH: QVQLQQSGAELVRPGVSVKISCKGSGYTFTDYAMHWVKQSHAKSLEWIGIISTYYGNASYNQKFKGKATMTVDKSSSTAYMELARLTSEDSAIYYCARVPYYGSSYAMDYWGQGTSVTVSS
VL: DVLMTQTPLSLPVSLGDQASISCRSSQNIVHSDGNTYLEWYLQKPGQSPKLLIYKVSNRFSGVPDRFSGSGSGTDFTLKISRVEAEDLGVYYCFQGSHVPWTFGGGTKLEIK
With B3, in test [2], the binding result was “binds”.

B4: biotinylated-2H2F3 (antibody, V domains shown)
VH: B3 VH
VL: B3 VL
For the molecule B4, the binding result in test [5] and in test [6] was “binds” throughout.

B5: 5F3D11 (antibody, V domains shown)
VH: not shown
VL: B3 VL with L3V, N28S, I29L, D33N, E39H, Y92F, F94S, G96S, S97T, W101P
On to B5, for which, in test [2], the binding result was “binds”.
